In US10500249B2, “Compositions and methods for preventing or treating diseases, conditions, or processes characterized by aberrant fibroblast proliferation and extracellular matrix deposition” (MOERAE MATRIX, INC., priority 2014, dated 2019):

Assays:
Assay in all cases: Kinase Profiling Assay
Assay type in all cases: biochemical
Conditions in all cases: 100 μM
GRK7 (h) = target: T1, GRK7 (h) (Homo sapiens, UniProt Q8WTQ7)
T1 construct: purchased Millipore
T1 sequence (Q8WTQ7 1-553): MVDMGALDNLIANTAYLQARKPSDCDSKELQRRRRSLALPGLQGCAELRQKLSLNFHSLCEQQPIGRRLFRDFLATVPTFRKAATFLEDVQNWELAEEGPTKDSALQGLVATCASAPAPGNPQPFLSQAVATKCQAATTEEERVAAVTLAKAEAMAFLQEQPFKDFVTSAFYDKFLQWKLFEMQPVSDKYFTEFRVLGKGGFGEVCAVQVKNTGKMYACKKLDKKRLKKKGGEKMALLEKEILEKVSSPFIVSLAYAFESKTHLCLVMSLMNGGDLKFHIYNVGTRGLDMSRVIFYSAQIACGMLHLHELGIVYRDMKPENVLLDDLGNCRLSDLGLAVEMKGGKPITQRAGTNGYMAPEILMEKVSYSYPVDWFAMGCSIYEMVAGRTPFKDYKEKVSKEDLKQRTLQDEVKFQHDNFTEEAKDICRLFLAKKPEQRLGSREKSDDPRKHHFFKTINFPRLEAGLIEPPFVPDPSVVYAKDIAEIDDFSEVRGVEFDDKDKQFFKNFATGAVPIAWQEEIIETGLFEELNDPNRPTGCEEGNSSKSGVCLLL
Summary of the method: (§1)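 Activity remaining relative to an uninhibited control was determined by scintillation counting of labeled substrate bound to a negatively charged filter. Radiolabeled phosphate came from ATP; the substrate carried positive charge. Duplicate measurements, within a 266-kinase human panel.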

IRAK4 (h) = target: T2, IRAK4 (h) (Homo sapiens, UniProt Q9NWZ3)
T2 construct: purchased Millipore
T2 sequence (Q9NWZ3 1-460): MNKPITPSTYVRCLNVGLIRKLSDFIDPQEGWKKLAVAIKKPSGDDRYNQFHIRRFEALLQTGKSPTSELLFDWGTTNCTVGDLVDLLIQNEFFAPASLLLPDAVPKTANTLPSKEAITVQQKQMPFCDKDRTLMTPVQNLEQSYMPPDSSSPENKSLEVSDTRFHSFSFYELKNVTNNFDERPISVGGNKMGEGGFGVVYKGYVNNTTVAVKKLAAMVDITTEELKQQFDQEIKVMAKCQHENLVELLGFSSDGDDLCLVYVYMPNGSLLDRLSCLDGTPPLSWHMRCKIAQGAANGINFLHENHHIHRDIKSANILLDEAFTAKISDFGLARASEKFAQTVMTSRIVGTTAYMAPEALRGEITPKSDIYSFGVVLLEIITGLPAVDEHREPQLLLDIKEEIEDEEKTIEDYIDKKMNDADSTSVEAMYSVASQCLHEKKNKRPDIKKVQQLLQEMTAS
Summary of the method: as §1

CaMKIIγ (h) = target: T3, CaMKIIγ (h) (Homo sapiens, UniProt Q13555)
T3 construct: purchased Millipore
T3 sequence (Q13555 whole entry): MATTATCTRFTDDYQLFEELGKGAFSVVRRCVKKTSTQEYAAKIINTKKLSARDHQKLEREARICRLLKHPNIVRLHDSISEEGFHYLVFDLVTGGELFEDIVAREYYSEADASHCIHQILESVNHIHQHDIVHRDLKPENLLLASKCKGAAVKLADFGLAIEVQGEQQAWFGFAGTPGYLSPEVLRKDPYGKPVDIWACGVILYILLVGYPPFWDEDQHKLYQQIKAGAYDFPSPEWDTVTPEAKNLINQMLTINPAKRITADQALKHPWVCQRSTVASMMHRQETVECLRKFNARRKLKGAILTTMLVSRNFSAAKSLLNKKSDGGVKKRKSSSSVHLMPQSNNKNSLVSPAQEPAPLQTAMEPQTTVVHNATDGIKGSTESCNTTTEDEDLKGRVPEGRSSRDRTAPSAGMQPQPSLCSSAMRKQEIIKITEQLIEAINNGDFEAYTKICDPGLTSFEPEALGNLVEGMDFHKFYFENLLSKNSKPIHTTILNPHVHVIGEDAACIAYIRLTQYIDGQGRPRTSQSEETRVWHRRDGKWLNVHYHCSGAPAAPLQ
Summary of the method: as §1

CHK2(R145W) (h) = target: T4, CHK2(R145W) (h) (Homo sapiens, UniProt O96017, R145W)
T4 construct: purchased Millipore
T4 sequence (O96017 whole entry R145W): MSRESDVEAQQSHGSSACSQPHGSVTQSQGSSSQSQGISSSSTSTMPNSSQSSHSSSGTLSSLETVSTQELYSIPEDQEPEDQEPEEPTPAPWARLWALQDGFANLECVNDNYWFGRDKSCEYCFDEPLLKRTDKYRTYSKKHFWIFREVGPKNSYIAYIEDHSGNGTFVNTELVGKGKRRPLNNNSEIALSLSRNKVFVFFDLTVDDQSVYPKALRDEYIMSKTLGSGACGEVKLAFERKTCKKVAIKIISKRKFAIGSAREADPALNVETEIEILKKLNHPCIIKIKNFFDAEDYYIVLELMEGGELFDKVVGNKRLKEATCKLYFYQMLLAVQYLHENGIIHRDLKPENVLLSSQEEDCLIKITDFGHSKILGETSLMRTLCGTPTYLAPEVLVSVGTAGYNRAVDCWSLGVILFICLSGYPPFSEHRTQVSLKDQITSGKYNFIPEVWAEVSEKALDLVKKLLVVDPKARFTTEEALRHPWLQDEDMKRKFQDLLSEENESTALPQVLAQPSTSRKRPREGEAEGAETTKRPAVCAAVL
Summary of the method: as §1

ASK1 (h) = target: T5, ASK1 (h) (Homo sapiens, UniProt Q99683)
T5 sequence (Q99683 1-1374): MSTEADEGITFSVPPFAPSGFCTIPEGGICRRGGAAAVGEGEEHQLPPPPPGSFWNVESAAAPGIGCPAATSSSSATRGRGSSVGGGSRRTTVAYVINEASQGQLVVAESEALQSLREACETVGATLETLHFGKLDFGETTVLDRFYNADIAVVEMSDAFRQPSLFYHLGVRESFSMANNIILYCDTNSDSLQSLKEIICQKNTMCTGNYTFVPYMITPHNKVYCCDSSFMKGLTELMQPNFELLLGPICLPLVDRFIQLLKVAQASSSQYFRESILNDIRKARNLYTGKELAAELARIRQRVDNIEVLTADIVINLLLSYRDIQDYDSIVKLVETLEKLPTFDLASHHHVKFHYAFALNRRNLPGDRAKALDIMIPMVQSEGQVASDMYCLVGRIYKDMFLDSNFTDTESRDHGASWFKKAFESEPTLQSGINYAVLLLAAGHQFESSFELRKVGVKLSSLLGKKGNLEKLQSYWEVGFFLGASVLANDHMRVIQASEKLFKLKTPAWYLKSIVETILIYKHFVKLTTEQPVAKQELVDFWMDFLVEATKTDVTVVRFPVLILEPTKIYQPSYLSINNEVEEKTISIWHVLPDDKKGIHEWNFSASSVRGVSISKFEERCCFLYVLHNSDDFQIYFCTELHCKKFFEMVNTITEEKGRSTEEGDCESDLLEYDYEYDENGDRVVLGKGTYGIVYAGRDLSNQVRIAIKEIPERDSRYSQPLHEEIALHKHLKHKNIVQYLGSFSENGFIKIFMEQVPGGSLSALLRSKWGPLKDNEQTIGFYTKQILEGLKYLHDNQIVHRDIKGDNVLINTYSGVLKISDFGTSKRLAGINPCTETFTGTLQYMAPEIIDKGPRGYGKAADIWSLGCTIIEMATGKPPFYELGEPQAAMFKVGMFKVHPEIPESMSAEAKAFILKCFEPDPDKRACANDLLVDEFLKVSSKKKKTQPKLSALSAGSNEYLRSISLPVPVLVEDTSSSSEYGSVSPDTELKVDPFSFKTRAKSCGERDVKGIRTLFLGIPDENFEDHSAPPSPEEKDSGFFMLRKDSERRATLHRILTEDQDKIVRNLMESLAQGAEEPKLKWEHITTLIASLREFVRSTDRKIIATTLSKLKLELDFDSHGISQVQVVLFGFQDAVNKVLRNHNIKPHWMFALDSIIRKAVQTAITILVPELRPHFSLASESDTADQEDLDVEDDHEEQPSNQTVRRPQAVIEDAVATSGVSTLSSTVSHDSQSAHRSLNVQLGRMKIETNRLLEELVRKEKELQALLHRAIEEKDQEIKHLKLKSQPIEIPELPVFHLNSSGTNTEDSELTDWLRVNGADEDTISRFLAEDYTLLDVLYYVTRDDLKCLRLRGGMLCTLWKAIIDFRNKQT
Summary of the method: as §1

CaMKIδ (h) = target: T6, CaMKIδ (h) (Homo sapiens, UniProt Q8IU85)
T6 construct: purchased Millipore
T6 sequence (Q8IU85 whole entry): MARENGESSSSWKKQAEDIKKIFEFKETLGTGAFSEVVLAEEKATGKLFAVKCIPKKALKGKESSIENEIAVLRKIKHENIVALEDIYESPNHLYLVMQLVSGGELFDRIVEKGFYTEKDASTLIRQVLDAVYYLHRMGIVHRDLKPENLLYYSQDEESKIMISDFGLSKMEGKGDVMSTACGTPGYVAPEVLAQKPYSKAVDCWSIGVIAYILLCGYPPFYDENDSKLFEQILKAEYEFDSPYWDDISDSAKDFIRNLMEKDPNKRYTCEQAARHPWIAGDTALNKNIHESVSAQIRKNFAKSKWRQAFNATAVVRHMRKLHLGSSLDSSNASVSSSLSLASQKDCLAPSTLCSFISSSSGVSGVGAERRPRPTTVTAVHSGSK
Summary of the method: as §1

PKCη (h) = PKCη (h) (Homo sapiens, UniProt P24723)
PKCη (h), sequence (P24723 whole entry): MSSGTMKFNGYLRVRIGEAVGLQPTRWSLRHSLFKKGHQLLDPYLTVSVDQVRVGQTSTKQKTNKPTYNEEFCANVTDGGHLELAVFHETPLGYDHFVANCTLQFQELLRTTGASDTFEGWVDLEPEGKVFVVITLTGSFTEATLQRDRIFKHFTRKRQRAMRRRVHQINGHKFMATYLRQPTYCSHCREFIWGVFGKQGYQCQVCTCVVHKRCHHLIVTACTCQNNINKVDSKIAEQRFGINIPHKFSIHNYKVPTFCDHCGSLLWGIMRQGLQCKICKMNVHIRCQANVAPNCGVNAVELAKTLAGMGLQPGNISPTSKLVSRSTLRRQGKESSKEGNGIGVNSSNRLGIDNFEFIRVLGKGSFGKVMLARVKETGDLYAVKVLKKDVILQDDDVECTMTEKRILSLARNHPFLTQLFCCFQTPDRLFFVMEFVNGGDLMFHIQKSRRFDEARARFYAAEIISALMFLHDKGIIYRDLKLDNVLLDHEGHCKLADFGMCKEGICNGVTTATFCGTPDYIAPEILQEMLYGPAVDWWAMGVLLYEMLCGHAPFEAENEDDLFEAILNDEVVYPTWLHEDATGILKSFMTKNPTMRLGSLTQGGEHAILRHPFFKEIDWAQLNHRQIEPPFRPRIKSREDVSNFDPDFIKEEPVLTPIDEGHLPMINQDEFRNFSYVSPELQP
Summary of the method: as §1

EGFR(L858R) (h) = target: T7, EGFR(L858R) (h) (Homo sapiens, UniProt P00533, L858R)
T7 construct: purchased Millipore
Summary of the method: as §1

| Sequence | % activity (GRK7 (h)) | % activity (IRAK4 (h)) | % activity (CaMKIIγ (h)) | % activity (CHK2(R145W) (h)) | % activity (ASK1 (h)) | % activity (CaMKIδ (h)) | % activity (PKCη (h)) | % activity (EGFR(L858R) (h)) |
| --- | --- | --- | --- | --- | --- | --- | --- | --- |
| FAKLAARLYRKALARQLGVAA [MMI-0300] | 122% | 59% | 5% | 33% | 80% | 10% |  |  |
| HRRIKAWLKKIKALARQLGVAA (Mammalian) [MMI-0500] | 93% | 3% | 3% | 3% | −4% | 0% | 45% | 26% |
| KAFAKLAARLYRKALARQLGVAA [MMI-0400] | 100% | 59% | 3% | 31% | 69% | 17% | 98% | 52% |
| YARAAARQARAKALNRQLGVA (Mammalian) [MMI-0200] | 124% | 110% | 94% | 81% | 101% | 47% | 101% | 120% |
